From paper PMC3382207, “Proteolytic Processing of ErbB4 in Breast Cancer” (PLoS ONE, 2012)

Experiments:
soluble ErbB4 ectodomain [1] = target: T1, soluble ErbB4 ectodomain (UniProt Q15303)
T1 sequence: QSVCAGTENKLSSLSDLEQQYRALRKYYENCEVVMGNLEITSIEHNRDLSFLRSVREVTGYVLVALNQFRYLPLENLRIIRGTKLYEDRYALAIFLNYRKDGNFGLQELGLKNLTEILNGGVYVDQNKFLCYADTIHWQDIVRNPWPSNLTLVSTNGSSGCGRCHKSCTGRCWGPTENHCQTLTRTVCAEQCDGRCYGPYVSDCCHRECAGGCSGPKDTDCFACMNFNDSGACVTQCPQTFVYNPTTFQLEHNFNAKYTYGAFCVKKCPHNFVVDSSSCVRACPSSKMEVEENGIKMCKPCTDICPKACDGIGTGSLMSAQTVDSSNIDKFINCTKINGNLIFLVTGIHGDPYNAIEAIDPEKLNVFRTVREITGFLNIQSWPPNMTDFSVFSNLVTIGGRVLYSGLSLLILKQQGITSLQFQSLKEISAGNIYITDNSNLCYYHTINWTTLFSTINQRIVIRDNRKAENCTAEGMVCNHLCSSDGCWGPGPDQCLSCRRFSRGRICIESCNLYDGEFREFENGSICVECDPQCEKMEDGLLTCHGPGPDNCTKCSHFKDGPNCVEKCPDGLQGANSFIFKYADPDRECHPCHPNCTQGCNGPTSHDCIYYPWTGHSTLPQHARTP

[2] = target: T2, His-tagged extracellular subdomain IV of ErbB4 (Homo sapiens, isoform JM-a, UniProt Q15303); test: Western blot; conditioned media of COS-7 transfectants expressing the His-tagged subdomains, blotted under non-reducing conditions, mAb 1479 as the primary antibody; anti-pentaHis as control of expression; settings: one partner purified
T2 construct: ErbB4 extracellular subdomain IV; construct limits are in File S1; source: COS-7, transiently transfected, in conditioned medium; not shown: His tag, C-terminal, kept

soluble ErbB4 ectodomain [3] = target: T1, soluble ErbB4 ectodomain; remark: listed apart in the source

T2 sequence (Q15303 whole entry, looked up, tested part not stated, canonical isoform): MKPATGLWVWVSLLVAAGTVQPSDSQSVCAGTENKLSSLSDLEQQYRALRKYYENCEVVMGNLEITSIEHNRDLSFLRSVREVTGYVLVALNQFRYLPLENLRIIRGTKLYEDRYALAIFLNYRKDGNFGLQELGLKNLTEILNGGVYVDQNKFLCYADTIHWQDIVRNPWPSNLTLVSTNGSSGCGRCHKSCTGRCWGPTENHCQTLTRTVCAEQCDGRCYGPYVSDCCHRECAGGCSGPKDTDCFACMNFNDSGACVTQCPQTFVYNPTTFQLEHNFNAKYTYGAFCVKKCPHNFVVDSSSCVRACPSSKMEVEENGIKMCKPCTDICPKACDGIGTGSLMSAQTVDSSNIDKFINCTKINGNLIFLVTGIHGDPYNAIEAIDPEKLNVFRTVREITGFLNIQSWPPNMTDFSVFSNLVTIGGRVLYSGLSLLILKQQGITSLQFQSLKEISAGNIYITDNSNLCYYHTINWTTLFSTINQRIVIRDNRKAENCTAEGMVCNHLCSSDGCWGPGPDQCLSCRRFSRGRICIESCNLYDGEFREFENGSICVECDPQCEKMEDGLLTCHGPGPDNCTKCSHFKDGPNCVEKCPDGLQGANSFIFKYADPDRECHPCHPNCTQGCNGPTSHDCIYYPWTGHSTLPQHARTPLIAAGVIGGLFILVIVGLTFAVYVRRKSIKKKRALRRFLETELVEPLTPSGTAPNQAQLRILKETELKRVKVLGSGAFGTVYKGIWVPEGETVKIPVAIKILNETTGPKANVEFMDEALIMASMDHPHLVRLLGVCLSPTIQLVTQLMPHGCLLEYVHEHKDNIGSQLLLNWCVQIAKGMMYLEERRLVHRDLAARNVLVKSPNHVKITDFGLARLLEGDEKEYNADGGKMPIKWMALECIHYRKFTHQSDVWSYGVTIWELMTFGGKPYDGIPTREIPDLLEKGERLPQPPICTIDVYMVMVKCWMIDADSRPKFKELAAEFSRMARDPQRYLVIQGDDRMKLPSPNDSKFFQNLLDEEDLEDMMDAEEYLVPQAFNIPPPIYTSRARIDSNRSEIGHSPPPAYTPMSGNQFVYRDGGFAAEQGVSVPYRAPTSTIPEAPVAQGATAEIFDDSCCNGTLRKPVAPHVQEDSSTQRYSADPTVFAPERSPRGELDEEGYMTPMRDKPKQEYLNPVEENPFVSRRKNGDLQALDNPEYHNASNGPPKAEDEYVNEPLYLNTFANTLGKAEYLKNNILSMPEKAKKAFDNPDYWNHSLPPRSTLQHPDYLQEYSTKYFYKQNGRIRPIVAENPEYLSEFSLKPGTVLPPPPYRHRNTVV

- relative proportion of the 100 kD ectodomain fragment of total ErbB4 in T-47D xenografts (Western blot with mAb 1464), control IgG against mAb 1479 (soluble ErbB4 ectodomain [1]): 9%
- binding result [2]: binds
- relative proportion of the 80 kD carboxy-terminal fragment of the total ErbB4 in T-47D xenografts (Western blot with E-200), control IgG against mAb 1479 (soluble ErbB4 ectodomain [3]): 74%
B1: anti-ErbB4 monoclonal antibody mAb 1479 (antibody, V domains shown)
VH: QVTLKESGPGILQPSQTLSLTCSFSGFSLSTYGIGVGWIRQPSGKGLEWLAHIWWNDNKYYNIALRSRLTISKDTSNNQVFLKIASVDTADTATYYCARIPDDHYFDYWGQGTTLTVSS
VL: DVLMTQTPLSLPVSLGDQASISCRSSQSIVHSNGNTYLEWYLQKPGQSPKLLIYKVSNRFSGVPDRFSGSGSGTDFTLKISRVEAEDLGVYYCFQGSHVPWTFGGGTKLEIK
notes: constant part of the IgG2 isotype; mouse monoclonal antibody, IgG2 isotype
